Earlier results on one substance are cited in article PMC7866199.

The target of data set [1] is NPT2A C-terminal 22 aa (Homo sapiens) (UniProt Q06495).
Data set [2] has as its target GRK6A C-terminal PDZ ligand (Homo sapiens) (UniProt P43250).
UniProt P43250, sequence (P43250 555-576): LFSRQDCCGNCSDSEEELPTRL

UniProt Q06495, sequence (Q06495 618-639): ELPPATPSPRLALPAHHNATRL

As for NHERF1 (from UniProt O14745), the dissociation constant (Kd) in data set [1] and in data set [2] was 4 µM in each case.
